# Results: publication PMC11481526
# Biological target: Toxoplasma gondii ABCB7-like (TgABCB7L), TGGT1_269000 (Toxoplasma gondii)
# Assay: native gel or EMSA; BN-PAGE (4-16% Bis-Tris) of ABCB7L-HA parasites solubilised in 1% βDDM on ice, immunoblot with anti-HA; bovine mitochondrial membranes as size marker
substance,measurement,value
"Toxoplasma gondii ABCB7-like (TgABCB7L), TGGT1_269000 (natural protein)",stoichiometry N,2
